Experimental data reported in patent US20200190209A1.
pKd: −log10 of the molar value.

Biological target: recombinant human CD38 his tagged (extracellular domain) (human) (UniProt P28907)
Experiment: ForteBio BLI

Substance: IB4 (reference monoclonal agonistic mouse anti-human CD38 antibody)
- pKd: 8.05
